Reference: patent US20180022822A1, “NOVEL ANTI-FIBROBLAST ACTIVATION PROTEIN (FAP) BINDING AGENTS AND USES THEREOF” (Mabimmune Diagnostics AG, priority 2016, published 2018)

Columns and labels:
[1] = target: T1, rhFAP and FAP SB9 oligopeptidase homologues (rhDPPIV, rhPOP/PREP, rhDPP8, rhDPP9) (Homo sapiens, UniProt Q12884); assay: ELISA binding to SB9 oligopeptidase family enzymes; conditions: sandwich ELISA affinity (EC50) assays
T1 construct: purchased Sino Biologicals 10464-H07H
T1 sequence (Q12884 26-760 limits assumed): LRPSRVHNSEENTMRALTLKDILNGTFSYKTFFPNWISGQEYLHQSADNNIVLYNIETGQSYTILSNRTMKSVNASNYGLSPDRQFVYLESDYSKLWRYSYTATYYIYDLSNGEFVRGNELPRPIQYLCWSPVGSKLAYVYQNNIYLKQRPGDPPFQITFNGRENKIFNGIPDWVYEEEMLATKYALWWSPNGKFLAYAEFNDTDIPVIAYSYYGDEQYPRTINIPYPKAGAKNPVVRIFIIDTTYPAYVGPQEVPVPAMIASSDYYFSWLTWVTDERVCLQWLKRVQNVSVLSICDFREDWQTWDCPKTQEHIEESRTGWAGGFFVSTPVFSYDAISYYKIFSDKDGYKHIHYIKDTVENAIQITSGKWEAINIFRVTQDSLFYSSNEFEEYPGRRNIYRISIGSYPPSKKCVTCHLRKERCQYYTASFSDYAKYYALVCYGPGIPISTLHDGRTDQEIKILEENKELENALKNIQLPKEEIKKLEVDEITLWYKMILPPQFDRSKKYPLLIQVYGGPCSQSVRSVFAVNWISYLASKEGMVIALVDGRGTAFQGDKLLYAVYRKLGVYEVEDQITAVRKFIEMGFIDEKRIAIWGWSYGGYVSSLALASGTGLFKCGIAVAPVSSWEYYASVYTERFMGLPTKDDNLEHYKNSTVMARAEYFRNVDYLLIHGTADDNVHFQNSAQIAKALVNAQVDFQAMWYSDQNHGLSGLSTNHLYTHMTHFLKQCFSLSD
Procedure: To determine the binding efficiency and inhibitory ability of NI-206.82C2 against other members of the SB9 oligopeptidase family that have sequence similarity to FAP, indirect ELISA and inihibiton assays were performed on active enzyme targets. Active recombinant human enzymes evaluated in this assay include: Fibroblast Activation Protein (FAP; Sino Biologicals, 10464-H07H), Dipeptidyl Peptidase IV (DPPIV, BPS Bioscience 80040), Dipeptidyl Peptidase 8 (DPP8, BPS Bioscience 80080), Dipeptidyl Peptidase 9 (DPP9, BPS Bioscience 80080), and Prolyl Oligopeptidase/Prolyl Endopeptidase (POP/PREP, BPS Bioscience 80105). Each recombinant peptidase was expressed with a purification tag, and attached to the 96 well ELISA plate using either a mouse anti-Histidine antibody (CloneTech), or a mouse anti-Glutathione S-transferase (GST, Sino Biologicals, 111213-MM02) tag antibody. Each enzyme was validated to bind and remained active on the ELISA plate using enzyme specific fluorogenic substrates. H-Gly-Pro-AMC (ATT Bioquest, 13450) was used to validate the presence and activity of DPP4, DPP9, and DPP8. […] Following a washing step, bound antibody was detected using 3,3′,5,5′-Tetramethylbenzidine (TMB) substrate. The reaction was stopped after 10 minutes by adding 2N H2SO4 and the resulting change in optical density was quantified using an ELISA plate reader at […] absorbance (FIG. 7 E).

[2] = target: T2, recombinant human FAP (Homo sapiens, UniProt Q12884); assay: mechanism of inhibition of rhuFAP-mediated PEP (Z-Gly-Pro-AMC) cleavage; assay type: biochemical; conditions: 0-1000 nM antibody, 20-100 μM Z-Gly-Pro-AMC; Lineweaver-Burk
T2 construct: purchased Sino Biologicals 10464-H07H
T2 sequence (Q12884 26-760 limits assumed): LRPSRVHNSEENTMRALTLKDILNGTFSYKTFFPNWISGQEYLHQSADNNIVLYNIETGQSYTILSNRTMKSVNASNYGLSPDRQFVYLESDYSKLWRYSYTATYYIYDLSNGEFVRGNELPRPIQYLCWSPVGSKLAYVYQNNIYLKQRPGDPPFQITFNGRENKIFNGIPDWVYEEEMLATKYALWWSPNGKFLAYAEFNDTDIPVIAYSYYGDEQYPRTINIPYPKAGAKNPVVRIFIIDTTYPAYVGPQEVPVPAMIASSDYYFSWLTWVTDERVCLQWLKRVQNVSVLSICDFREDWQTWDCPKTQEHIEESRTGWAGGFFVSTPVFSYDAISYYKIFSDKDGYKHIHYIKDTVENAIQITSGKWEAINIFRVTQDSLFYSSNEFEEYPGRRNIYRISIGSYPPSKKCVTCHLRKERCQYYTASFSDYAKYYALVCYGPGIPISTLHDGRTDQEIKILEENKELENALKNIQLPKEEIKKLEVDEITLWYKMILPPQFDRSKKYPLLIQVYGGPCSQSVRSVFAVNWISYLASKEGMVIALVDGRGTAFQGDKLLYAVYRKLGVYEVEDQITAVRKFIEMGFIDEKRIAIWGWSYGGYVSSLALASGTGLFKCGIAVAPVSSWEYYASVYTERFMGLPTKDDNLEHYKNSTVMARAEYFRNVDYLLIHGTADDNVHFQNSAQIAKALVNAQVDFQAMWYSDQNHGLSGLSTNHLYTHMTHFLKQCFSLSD
Procedure: A black flat bottom standard 96-well ELISA plate was blocked for 1 hr at 37° C. using sterile blocking buffer: 5% bovine serum albumin (BSA) in phosphate buffered saline (PBS). 10 μL of recombinant human FAP solution: 0.4 nM recombinant human FAP (Sino Biologicals, 10464-H07H), in 225 mM Sodium phosphate buffer, pH 7.4) was added to each well. Then, 80 μL of NI-206.82C2 at the indicated concentrations in PBS were added to the wells incubated for 1 hr at 37° C. Then, 10 μL of fluorogenic substrate solution (Z-Gly-Pro-AMC in 40% methanol and 60% 25 […]) was added to each well. The fluorescence intensity was measured at 360 nm excitation and 460 nm emission every 3 min over a total reading time of 2 hr.

[3] = test system: CT-26 syngeneic liver metastasis; assay: immunofluorescence on murine CT-26 colorectal cancer tissue sections; set-up: species or system mouse; conditions: Cy5 labelled antibody, 10 μg/mL
Procedure: NI-206.82C2 was prelabelled with Cyanine 5 antibody labeling kit (Innova Biosciences, 342-0010), and sufficient antibody labelling was validated with a photospectrometer. Cryosections of mouse livers containing syngeneic CT-26 liver metastasis were allowed to dry for 30 min at room temperature the fixed for 10 min in 4% formalin in PBS. Slides were then washed 3 times for 5 minutes in PBS and blocked for 1 hr at room temperature with 5% bovine serum albumin in PBS.
The slides were then incubated overnight at 4° C. with staining solution containing DAPI at 0.5 μg/mL, and Alexa 547 phalloidin (Invitrogen) according to the manufacturer's instructions, and either Cy5 labelled NI-206.82C2 or a Cy5 labelled isotype-matched control antibody 3A1 at a concentration of 10 μg/mL, in blocking solution with 0.5% Triton X100. Slides were then washed 3 times in PBS, mounted in Lisbeth's mounting medium, and imaged with an SP8 confocal microscope (Leica Microsystems).

B1: NI-206.82C2: human-derived recombinant anti-FAP antibody; VH SEQ ID NO: 2 or 4 (PIMC), VL SEQ ID NO: 6 (antibody, V domains shown)
VH: QVQLQQSGPGLVKPSQTLSLTCAISGDSVSSNSVTWNWIRQSPSRGLEWLGRTYYRSKWYNDYAVSVKGRITINPDTSKNQFYLQLKSVTPEDAAVYYCARDSSILYGDYWGQGTLVTVSS
VL: QAVLTQPSSLSASPGASASLTCTLPSGINVGTYRIFWFQQKPGSPPQYLLSYKSDSDNHQGSGVPSRFSGSKDASANAGILLISGLQSEDEADYYCMIWHSSAWVFGGGTKLTVL
- binding selectivity for rhFAP over SB9 oligopeptidase homologues [1]: selectively binds to recombinant human FAP (rhFAP) but not FAP SB9 oligopeptidase homologues
- type of inhibition of FAP-mediated PEP cleavage [2]: non-competitive inhibitor
- staining of murine CT-26 liver metastasis sections [3]: found around the perimeter
